Target: 5-FAM-labelled VISTA WT peptide (fluorescence polarization probe) (human)
Assay: fluorescence polarisation

Chain of 5-FAM-labelled VISTA WT peptide (fluorescence polarization probe) (human) (Q9H7M9 232-258): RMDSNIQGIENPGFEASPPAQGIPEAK

Q: With “recombinant NUMB PTB domain (domain or fragment)” as the substance, how does the Kd read?
A: Its Kd is 5.5 µM.

From paper PMC11722267
